Test results as given in the nanobody polyreactivity screen of Harvey et al. (2022).

assay: yeast display, Sf9 membrane polyspecificity reagent, FACS + sequencing; frameworks hold sequencing errors
Outline: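 A synthetic nanobody library was expressed on Saccharomyces cerevisiae BJ5465 by galactose induction for 36–48 hours. The library was stained for 1 hour at 4 °C with 10% biotinylated, detergent-solubilized Sf9 membrane reagent and enriched with streptavidin microbeads before FACS. Low and high (top ~1%) gates were set on anti-HA fluorescence for expression and streptavidin fluorescence for reagent binding, and each polyreactivity label reflects the gate of origin.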

Row | Sequence | polyreactivity (PSR sort gate)
1 | QVEHVESGGALGQAGGSLRLSCAASGITFAPYAMGWYREAPGKETEFDAGINTGGSKYYADSVKGRFTISRDNAKNTFYVQMNSLKPEDTAVYFCATESYPADQDIPGSDYWGQGTQVTVSS | low polyreactivity
2 | QVQLVESGGGLVQAGGSLRLSCAASGRTFQSNARGRARQAPGKETELVATISSDGSTYYADSVKGRFTISRDNAKNTVYLQMNSLKPEDTAVYYCAADSHPASTIGVRLDSWGQGTQVTVSS | low polyreactivity
3 | QVQLVESGGGLVQAGGSLRLSCAASGITFDYNAMGWYRQAPGKERELVASINSGGNTNYADSVKGRFTISRDNAKNTVYLQMNSLKPEDTAVYYCATVSYYLYTRYDYWGQGTQVTVSS | low polyreactivity
4 | QVQLVESAVGLVQAGGSLRLSSAASGFTFLNYAMGSYRQAPGKVRELVAAITWSGGNTYYADSVMGRFTISRDNAKNTVYLQMNSLKPEDTAVYYCAADYRARGKFYWGQGTQVTVSS | high polyreactivity
5 | QVQLVESGGGLVQAGGSLRLSCAASGITSHPYDMGWYRQAPGKERELVAVITSGGSTSYADSVKGRFTISRDNAKNTVYLQMNSLKPEDTAVYYCNADSWYAWYSYGYDYWGQGTQVTVSS | low polyreactivity
6 | QVQLVESGGGLVQAGGSLRLSCAASGYIIFTNAMGWYRQAPGKERQLVAAISTIDGSTYYADSVKGRFTISRDNAKNTVYLQMNSLKPEDTAVYYCATDTPFISSLAYDYWGQGTQVTVSS | low polyreactivity
7 | QVQLVESGGGLVQAGGSLRLICAASGRTFINYAMGWSRQAPGKERELVAAITTGGRTNYADSVKGRFTISRDNAKNTVYLQMKSLKPEDTAVYYCAADRYYWGRYTLNYWGQGTQVTVSS | low polyreactivity
8 | QVQLVESGGGLVQAGGSLRLSCAASVYIFVPYTLGWYRQAPGKERELVAAITRSGGSTYYADSVKGRFTISRDNAKNTVSLQMNSLKPEDTAVYYCATVGGPRWVRAQYDYWGQGTQVTVSS | high polyreactivity
9 | QDQLVESGGGLVQAGGSLRLSCAASGLNFRFYAMGWYRTATGKERELVAAISSRGGSTYYAHSVKGRFTISRDNSKNTFYLQMISLKPEDTWVYYCAADYGDEYEYCGQGTQVTVSS | high polyreactivity
10 | QVQLVESGGGLVQAGGSLRLSCAASGFIFSKYVMGWSRQAPGKERELVAAITRSGSSTYYADSVKGRFTISRDNAKNTVYLQMNSLKPEDTAVYYCAADGGYYDDDYWGQGTQVTVSS | high polyreactivity
11 | QVQLVESGGGLVQAGGSLRLSCAASGFTYLYNAMGWYRQAPGKERELVASINSGGSTNYADSVKGRFTISRDNAKNSVYLQMNSLKPEDTAVYFCNAKRLVRKGDYWGQGTQVTVSS | low polyreactivity
12 | QVQLVESGGGLVQAGGSLRLSCAASGIIFTNYGMGWYRQAPGKERELGAVISRRGGSTYYADSVKGRFTISRDNAKNTVYLQMNSLKPEDTAVYYCNTRTQGAKQYTGYDYWGQGTQVTVSS | high polyreactivity
13 | QVQLVESGGGLVQAGGSLRLSCAASGIIFRGYAMRWYRQAPGKVREVVAVITSGGGTYYADSVKGRFTISRDNAKNNVYLQMNSLKPEETAVYYCNAASSLPGYDYWGQGTQVTVSS | high polyreactivity
14 | QVQLVESGGGLVQAGGSLRLSCAASGSTFKSYAMGWYRQAPGKERELVAAITHRGSTYYADSVKGRFTISRDNAKNTVYLQMNSLKPEDTAVYYCNVRRIGNGRRVDYWGQGTQVTVSS | high polyreactivity
15 | QVQLVESGGGLVQAGGSLRLSCAASGSTFKFYTMGWYRQAPGKERELVATIDWSGGSTYYADSVKGRFTISRDNAKNTVYLQMNSLKPEDTAVYYCAAYSRSRNTRLGKYYYWGQGTQVTVSS | high polyreactivity
16 | QVQLEETVGGLVQAGGSLRLSSAATGLTFYLYVMGWYSQAHGKERELVAAISRRGGTTYYADSVKGRVTISRDKAKNTVYLQLNCLKPDDTAVYDCAADFFARTQRTFDYWGLGTQVTVSS | high polyreactivity
17 | QVQLVESGGGLVQAGGSLRLSCAASGGIFPAYAMGWYRQSPGKERELVASISANGGRTYYADSVKGRFTISRDNAKNSVYLQLNSLKPEDTAVYYCNASYRSGSWRFYYWGQGTQVTVSS | high polyreactivity
18 | QVQLVESGGGLVQAGRSLRLSCAASGSTFVPYAMGWYRQAPGKERELVAAITTSGGNTYYADSVKGRFTISRDNAKNTVYLQMNSLKPEDTAVYYCAADTYRRFDYWGQGTQVTVSS | low polyreactivity
19 | QVQLVESGGGLVQAGGSLRLSCAASGRIFTSYAMGWYRQAPGKERELVAAISSGGSTYYADSVKGRFTISRDNAKNTVYLQMNSLKPEDTAVYYCNAQSTRRYYYYWGQGTQVTVSS | high polyreactivity
20 | QVQLVESGGGLVQAGGSLRLSCASSGSIFSSNTMGWYRQAPGKERELVAAITVSGGRTYYADSVKGRFTISRDNAKNTVYLQMNSLKPEDTAVYFCAARYANTYRTETSYPRYYSWGQGTHVTVSS | high polyreactivity
21 | QVQLVESGGGLVQAGGSLRLSCAASGSTFDRYAMGWYRQAPGKEREFVAAITWGGGSTYYADSVKGRFTISRDNAKNTVYLQMNSLKPEDTAVYYCATRYGATFGYWGQGTQVTVSS | low polyreactivity
22 | QVHLVESGGGLVQAGGSLRLSCDATGFTFQEYAMGWYRQAPGKERELVAAISTSGDSTYYADSVKGRFTISRDNAKNTVYLQMKSLKPEDNAVYYCATAYEDLDAGVLYDYWGQGTQVTVSS | low polyreactivity
23 | QVQLVESGGGLVQAGGSLRLSCAASGRTIYRYGMGWYRQAPGKERELVADITWRGDSTYYADSVKGRFTISRDNAKNTVYLQMNCLKPEDTAVYYCATRPRGYRWGKLYDYWGQGTQVTVSS | high polyreactivity
24 | QVQLVESGGGLVQEGGSLRLSCAASGFIFVTNAMGWYRQAPGKERELVAAITIGDSTYYADSVKGRFTISRDNAKNTVYLQMNSLKPEDTAVYYCAAEVGFGPGFSTIAYTFDYWGQGTQVTVSS | low polyreactivity
25 | QVQLVESGGGLVQAGGSLRLSCAASGSTLYRYAMGWYRQAPGKERELVAAISSSGGSTYYADSVKGRFTISRDNAKNTVYLQMNSLKPEDTAVYYCAATSSFYFILYDYWGQGTQVTVSS | high polyreactivity
26 | QVQLVESGGGLVQAGGSLRLSCAASGRIFYFNAMGWYRQAPGKEREFVASINSIGDSTYYADSVKGRFTISRDNAKNTVYIQMNSQKPEDTAVYYCKADHGVINYRLDYWGHGTQVTVSS | low polyreactivity
27 | QVQLVESGGGLVQAGGSLRLTCAASGSIVQVYPMVWYRQEPGKEREFVAAISYSGGGTYYADSVKGRFTISRDIAKNTVYLQMNILKPEDTAVYYCAADVSAWEEDIWRQGTQVTVSS | low polyreactivity
28 | QVQLVESGGGLVQAGGSLRLSCAASGSIFAYYAMGWYRQAPGKERELVARIRRRSSSTFYADSVKGRFTISRDNAKYTVYLQMNSLKPEDTAVYYCAVRGPGTSTYWYHEYEYWGQGTQVTVSS | high polyreactivity
29 | QVQLVESGGGLVQAGGSLRLSCAASGFTCAWYTMGWYREAPGKERELVAAISLNGGSTYYADSVKGRFTISRDNAKNTVYLQMNRLKPEDTAVYYCAKGYRWPYYPYDYWGQGTQVTVSS | low polyreactivity
30 | QVQLVESGGGLVQAGGSLRLSCAASGFTFWRNTMGSYRQARGKEREFVAAIDWSGGSTTYADSVKGRFTISRDNAKNTVYLQMNSLKKEDTAVYYCAAAERRRHYWWGQESDYWGQGTQVTVSS | low polyreactivity
